B1: SRP1848-C10 (antibody, V domains shown)
VH: EVQLVESGGGLVQPGGSLRLSCAASGFNIRTYYIHWVRQAPGKGLEWVGGISPIDGYTDYADSVKGRFTISADTSKNTAYLQMNSLRAEDTAVYYCARGSWSWPAGYGYYLDYWGQGTLVTVSS
VL: not shown
B2: SRP1848-D07 (antibody, V domains shown)
VH: EVQLVESGGGLVQPGGSLRLSCAASGFNISKYYIHWVRQAPGKGLEWVGGISPNDGYTDYADSVKGRFAISADTSKNTAYLQMNSLRAEDTAVYYCARGFWAWRSGYGYYLDYWGQGTLVTVSS
VL: not shown
B3: SRP1848-D05 (antibody, V domains shown)
VH: EVQLVESGGGLVQPGGSLRLSCAASGFNISISYIHWVRQAPGKGLEWVGGISPIDGYTDYADSVKGRFTISADTSKNTAYLQMNSLRAEDTAVYYCARGSWSWRAGYGYYLDYWGQGTLVTVSS
VL: not shown
B4: SRP1848-E01 (antibody, V domains shown)
VH: EVQLVESGGGLVQPGGSLRLSCAASGFNITNKYIHWVRQAPGKGLEWVGGITPFDGFTDYADSVKGRFTISADTSKNTAYLQMNSLRAEDTAVYYCARGSWSWPAGYGYYQDYWGQGTLVTVSS
VL: not shown
B5: SRP1848-E05 (antibody, V domains shown)
VH: EVQLVESGGGLVQPGGSLRVSCAASGFNIGVYYIHWVRQAPGKGLEWVGGITPNDGYTDYADSVKGRFTISADTSKNTAYLQMNSLRAEDTAVYYCARGFWAWRSGYGYYLDYWGQGTLVTVSS
VL: not shown
B6: SRP1848-D10 (antibody, V domains shown)
VH: EVQLVESGGGLVQPGGSLRLSCAASGFNISRNSIHWVRQAPGKGLEWVGWISPNDGTTDYADSVKGRFTISADGSKNTAYLQMNSLRAEDTAVYYCARGAWSWRSGYGYYIDYWGQGTLVTVSS
VL: not shown
B7: SRP1848-F09 (antibody, V domains shown)
VH: EVQLVESGGGLVQPGGSLRLSCAASGFNISNHYIHWVRQAPGKGLEWVGGISPLDGYTDYADSVKGRFTISADTSKNTAYLQMNSLRAEDTAVYYCARGAWSWRSGYGYYIDYWGQGTLVTVSS
VL: not shown
B8: SRP1848-G01 (antibody, V domains shown)
VH: EVQLVESGGGLVQPGGSLRLSCAASGFNISRHSIHWVRQAPGKGLEWVGWIAPNDGSTDYADSVKGRFTISADTSKNTAYLQMNSLRAEDTAVYYCARGSWAWRSGYSYFLDYWGQGTLVTVSS
VL: not shown
B9: SRP1848-F01 (antibody, V domains shown)
VH: EVQLVESGGGLVQPGGSLRLSCAASGFNIRTYSIHWVRQAPGKGLEWVGSIFPNDGTTDYADSVKGRFTISADTSKNTAYLQMNSLRAEDTAVYYCARGSWAWRAGYSYYLDYWGQGTLVTVSS
VL: not shown
B10: SRP1848-D09 (antibody, V domains shown)
VH: EVQLVESGGGLVQPGGSLRLSCAASGFNISNYYIHWVRQAPGKGLEWVGGISPNDGYTDYADSVKGRFTISADTSKNTAYLQMNSLRAEDTAVYYCARGSWSWRHGYGYYLDYWGQGTLVTVSS
VL: not shown
B11: SRP1848-F08 (antibody, V domains shown)
VH: EVQLVESGGGLVQPGGSLRLSCAAGGFNISNHSIHWVRQAPGKGVEWVGEIYPVDGITDYADSVKGRFTISADTSKNTAYLRMNSLRAEDTAVYYCARGSWYWQSGYSYYLDYWGQGTLVTVSS
VL: not shown
B12: SRP1848-D04 (antibody, V domains shown)
VH: EVQLVESGGGLVQPGGSLRLSCAASGFNISHYSIHWVRQAPGKGLEWVGEIYPRDGITDYADSVKGRFTISADTSKNTAYLQMNSLSAEDTAVYYCARGYWFWRSGYGYYLDYWGQGTLVTVSS
VL: not shown
B13: SRP1848-F02 (antibody, V domains shown)
VH: EVQLVESGGGLVQPGGSLRLSCAASGFNIRTYSIHWVRQAPGKGLEWVGSIFPNDGTTDYADSVKGRLTISADTSKNTAYLQMNSLRAEDTAVYYCARGSWSWQAGYGYYLDYWGQGTLVTVSS
VL: not shown
B14: SRP1848-F06 (antibody, V domains shown)
VH: EVQLVESGGGLVQPGGSLRLSCAASGFNISLSYIHWVRQAPGKGLEWVGGISPIDGNTDYADSVKGRFTISADTSKNTAYLQMNSLRAEDTAVYYCARGFWAWRSGYGYYLDYWGQGTLVTVSS
VL: not shown
B15: SRP1848-F11 (antibody, V domains shown)
VH: EVQLVESGGGLVQPGGSLRLSCAASGFNISNNYIHWVRQAPGKGLEWVGGITPIDGNTDYADSVKGRFTISADTSMNTAYLQMNSLRAEDTAVYYCARGSWYWRAGYGYYLDYWGQGALVTVSS
VL: not shown
B16: SRP1848-E02 (antibody, V domains shown)
VH: EVQLVESGGGLVQPGGSLRLSCAASGFNIGKYSIHWVRQAPGKGLEWVGEIYPNDGNTDYADSVKGRFTISADTSKNTAYLQMNSLRAEDTAVYYCARGSWSWRSGYGYYLDYWGQGTLVTVSS
VL: not shown
B17: SRP1848-F07 (antibody, V domains shown)
VH: EVQLVESGGGLVQPGGSLRLSCAASGFNISNHSIHWVRQAPGKGLEWVGEIYPNDGITDYADSVKGRFTISADTSKNTAYLQMNSLSAEDTAVYYCARGSWDWRSGYSYYLDYWGQGTLVTVSS
VL: not shown
B18: SRP1848-F10 (antibody, V domains shown)
VH: EVQLVESGGGLVQPGGSLRLSCAASGFNISNNSIHWVRQAPGKGLEWVGSIFPNDGYTDYADSVKGRFTISADTSKNTAYLQMNSLRAEDTAVYYCARGSWFWRSGYGYYLDYWGQGTLVTVSS
VL: not shown
B19: SRP1848-D02 (antibody, V domains shown)
VH: EVQLVESGGGLVQPGGSLRLSCAASGFNISHNYIHWVRQAPGKGLEWVGGITPQDGYTDYADSVKGRFTISADTSKNTAYLQMNRLRAEDTAVYYCARGAWSWRAGYGYYLDYWGQGTLVTVSS
VL: not shown
B20: SRP1848-E07 (antibody, V domains shown)
VH: EVQLVESGGGLVQPGGSLRLSCAASGFNIRKSSIHWVRQAPGKGLEWVGEIFPYDGSTDYADNVKGRFTISADTSKNTAYLQMNSLRAEDTAVYYCARGAWSWRSGYGYYIDYWGQGTLVTVSS
VL: not shown
B21: SRP1848-F05 (antibody, V domains shown)
VH: EVQLVESGGGLVQPGGSLRLSCAASGFNISKSSIHWVRQAPGKGLEWVGEIYPNDGSTDYADSVKGRFTISADTSKNTAYLQMNSLRAEDTAVYYCARGSWAWRSGYSYFLDYWGQGTLVTVSS
VL: not shown

biological target: human folate receptor alpha (hFOLR1) (human, UniProt P15328 25-234); assay: cell-based or functional assay
Sequence (P15328 25-234 limits assumed): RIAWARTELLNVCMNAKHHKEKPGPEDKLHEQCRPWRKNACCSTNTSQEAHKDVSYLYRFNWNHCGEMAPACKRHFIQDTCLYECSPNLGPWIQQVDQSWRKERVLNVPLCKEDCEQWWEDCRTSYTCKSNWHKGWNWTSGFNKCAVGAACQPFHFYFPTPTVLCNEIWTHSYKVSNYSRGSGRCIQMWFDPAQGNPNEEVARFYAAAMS

Binder	Igrov 2° antibody cell killing EC50 [nM]	Igrov 2° antibody cell killing Span [%]	KB 2° antibody cell killing EC50 [nM]	KB 2° antibody cell killing Span [%]
B1	0.036	75	0.057	96
B2	0.032	71	0.075	94
B3		73	0.055	92
B4	0.029	72	0.088	92
B5	0.027	78	0.071	95
B6	0.012	54	0.016	90
B7	0.05	79	0.056	93
B8	0.022	66	0.07	91
B9	0.018	69	0.047	91
B10	0.023	70	0.042	91
B11	0.024	77	0.061	94
B12	0.068	77	0.38	97
B13	0.009	54	0.054	92
B14	0.032	77	0.066	94
B15	0.017	70	0.054	91
B16	0.025	71	0.046	93
B17	0.018	71	0.057	92
B18	0.009	68	0.038	94
B19	0.027	71	0.034	93
B20	0.013	73	0.059	94
B21	0.015	74	0.061	94

— US20220047716A1 (SUTRO BIOPHARMA, published 2022)
